Reference: publication PMC8006934

What was measured:
[1] = biological target: FcγRIIb, human, C-terminally biotinylated (human) (UniProt P31994); experiment: SPR; conditions: natural protein; remark: other sources report otherwise
[2] = biological target: FcγRIa, FcγRIIa/b, and FcγRIIIa; experiment: SPR; IBIS MX96 array; C-terminally biotinylated FcRs spotted at different densities (100–1 nM) on one SensEye G-streptavidin sensor, blocked with biotinylated BSA; CRP injected in 2-fold dilutions from 0.98 to 2,000 nM in 20 mM Tris, 280 mM NaCl, 5 mM CaCl2, pH 8.0; KD by equilibrium fitting to Rmax = 500

Sequence of FcγRIIb, human, C-terminally biotinylated (human) (P31994 43-217): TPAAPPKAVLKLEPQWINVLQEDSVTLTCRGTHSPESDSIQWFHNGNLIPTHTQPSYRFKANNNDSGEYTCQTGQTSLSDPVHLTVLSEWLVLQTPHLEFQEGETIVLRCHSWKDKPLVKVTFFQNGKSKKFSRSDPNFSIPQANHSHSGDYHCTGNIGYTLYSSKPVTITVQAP

Row | Kd [1] [µM] | Kd [2] [µM] | Substance
1 | 4.2 |  | C-reactive protein (native CRP from human fluid) (from UniProt P02741 19-224)
2 |  | 3.4 to 4.9 | C-reactive protein (native CRP from human fluid) (from UniProt P02741 19-224) (natural protein)
